Laboratory results from patent publication US11124550B2, “Proteinaceous molecules and methods of use” (priority 2015, dated 2021).
Positions of bridges follow the written chain, without caps; N, C: chain ends. Residues, ends and D or L forms follow the SMILES beside them.

Tests used:
TG or DRG neurons = test: Calcium imaging of cultured somatosensory neurons (Fura-2); assay type: cell-based, rat
hNav1.1 [1] = target: T1, hNav1.1 (Homo sapiens, UniProt P35498); test: Automated whole-cell patch clamp (QPatch 16X), sustained currents in HEK293 cells; assay type: cell-based; details: for fast inactivation and sustained current at end of depolarising pulse, hNav1.1: 300 nM; for EC50: HEK293 cells stably expressing hNav1.1, n=3, read-out: EC50 for evoking sustained currents at hNav1.1
T1 construct: expressed in transfected cells; host or cells: HEK293T
Method: The activity of recombinant Hm1b was assessed at hNav1.1-1.7. Sodium currents were measured from hNav channels stably expressed in HEK293 cells using an automated whole-cell patch-clamp electrophysiology system (QPatch 16X; Sophion, Ballerup, Denmark). The extracellular solution comprised 2 mM CaCl2), 1 mM MgCl2, 10 mM HEPES, 4 mM KCl, 145 mM NaCl, 10 mM D-glucose at pH 7.3, and 305 mOsm. The intracellular solution comprised 140 mM CsF, 1 mM/5 mM EGTA/CsOH, 10 mM HEPES, 10 mM NaCl at pH 7.3, osmolality 320 mOsm. The elicited currents were sampled at 25 kHz and filtered at 5 kHz. Cells were maintained at a holding potential of −80 mV and sodium currents were elicited by 210 ms voltage steps at 0 mV after a 50 ms conditioning step from −120 mV. For dose-response experiments, cells were incubated for 5 min with increasing concentrations of Hm1b. Peptide stock solutions were made up to 10 μM and serial dilutions were prepared in extracellular solution containing 0.1% BSA. Graphs and fittings were performed using Prism 7.0 (GraphPad Software, San Diego, Calif.). Numerical data are presented as mean SEM based on at least three experiments (n≥3).
The point mutation (Lys to Ser at position 11) was introduced into the pLIC-MBP-Hm1b expression plasmid (produced according to the methods of Example 7) by polymerase chain reaction (PCR) using mutagenic primers and standard protocols with Platinum Pfx DNA Polymerase (Invitrogen). Mutagenic primers were designed using the online tool PrimerX and synthesised by Integrated DNA Technologies, Inc. (Emu Heights, NSW). DNA from the mutant construct was isolated and sequenced to verify the desired mutation (AGRF, Brisbane, Australia). Plasmid DNA was isolated using ISOLATE II plasmid Mini Kit (Bioline, London, UK) for transformation into E. coli BL21 cells for recombinant peptide production. […].

hNav1.1 [2] = target: T1, hNav1.1; test: Automated planar whole-cell patch clamp (Patchliner), hSCN1A HEK293T cells; assay type: cell-based
Source text: (§1) To characterize the functional activity of Hm1a and Hm1b, HEK293T cells stably transfected with either hSCN1A, hSCN2A, hSCN3A, hSCN5A, hSCN9A or hSCN10A as well as CHO cells stably transfected with hSCN4A or hSCN8A were used for whole-cell patch-clamp analysis with a high throughput automated planar patch-clamp technology.
(§2) HEK293T cells stably transfected with either hSCN1A, hSCN2A, hSCN3A, hSCN5A, hSCN9A or hSCN10A were maintained in Dulbecco's Modified Eagle's Medium Nutrient Mixture F-12 (Invitrogen, Carlsbad, Calif., USA) supplemented with 10% (v/v) foetal bovine serum (FBS) (Invitrogen), 0.9% Penicillin/Streptomycin (P/S) solution and 100 μg/mL hygromycin or 100 μg/mL neomycin. CHO cells stably transfected with hSCN4A or hSCN8A were maintained in Ham's F12 Nutrient Mixture (Invitrogen, Carlsbad, Calif., USA) supplemented with 10% (v/v) FBS, 0.9% P/S solution and 100 μg/mL hygromycin. All cells were grown in T75 flasks (BD Biosciences, San Jose, Calif., USA) to ˜70% confluency.
Patch-clamp recordings were conducted in the whole-cell configuration using a Patchliner® (Nanion Technologies, Munich, Germany). Before recordings, cells were detached from culture flasks with Accutase Cell Detachment Solution (Innovative Cell Technologies Inc., San Diego, Calif., USA) and resuspended at a density of 1×10^6 to 5×10^7 per milliliter in 50% serum free media and 50% external recording solution v/v. The external recording solution comprised: 140 mM NaCl, 4 mM KCl, 1 mM MgCl2, 2 mM CaCl2), 5 mM D-glucose, 10 mM HEPES (pH adjusted to 7.4 with NaOH). The osmolarity of this solution was 298 mOsm. The internal recording solution comprised: 50 mM CsCl, 10 mM NaCl, 60 mM CsF, 2 mM MgCl2, 20 mM EGTA, 10 mM HEPES (pH adjusted to 7.2 with CsOH) and the osmolarity of this solution was 285 mOsm. […]
(§3) The voltage dependence of activation was studied by measuring the normalised peak currents during 100 ms depolarisations from −120 mV to +30 mV in 5 mV increments. The resulting current-voltage curve was fit to the equation I=[I+exp(−0.03937.z.(V−V1/2)]/g.(V−Vr), where I is current amplitude; z is apparent gating charge; V is test potential; V1/2 is half maximal voltage; g is a factor related to the maximum number of open channels; and Vr is reversal potential. Conductance was determined using G=I/(V−Vr), where G is conductance. The conductance values were then fit with the Boltzmann equation G=1/(1+exp[(V−V1/2)/a]), where a is the slope of the half-maximum, V is the potential of the given pulse and V1/2 is the potential for the half-maximal activation. To study steady-state fast inactivation, cells were held at conditioning pre-pulse potentials ranging from −120 mV to +30 mV in 5 mV increments from a holding potential of −120 mV and a test pulse at 0 mV for 20 ms. […]

hNav1.2 = target: T2, hNav1.2 (Homo sapiens, UniProt Q99250); test: Automated planar whole-cell patch clamp (Patchliner), hSCN2A HEK293T cells; assay type: cell-based
T2 construct: expressed in transfected cells; host or cells: HEK293T
Source text: as §1, §2
(§4) Patch-clamp recordings were conducted in the whole-cell configuration using a Patchliner® (Nanion Technologies, Munich, Germany). […]
as §3

hNav1.3 = target: T3, hNav1.3 (Homo sapiens, UniProt Q9NY46); test: Automated planar whole-cell patch clamp (Patchliner), hSCN3A HEK293T cells; assay type: cell-based
T3 construct: expressed in transfected cells; host or cells: HEK293T
Source text: as §1, §2, §4, §3

hNav1.6 = target: T4, hNav1.6 (Homo sapiens, UniProt Q9UQD0); test: Automated planar whole-cell patch clamp (Patchliner), hSCN8A CHO cells; assay type: cell-based
T4 construct: expressed in transfected cells; host or cells: CHO
Source text: as §1, §2, §4, §3

[3] = after 72 hours, 37° C., 1 μM
in vitro = details: human, cerebrospinal or other body fluid
[4] = 5 nM and 50 nM, potentials more positive than −15 mV

T3 sequence (Q9NY46 whole entry): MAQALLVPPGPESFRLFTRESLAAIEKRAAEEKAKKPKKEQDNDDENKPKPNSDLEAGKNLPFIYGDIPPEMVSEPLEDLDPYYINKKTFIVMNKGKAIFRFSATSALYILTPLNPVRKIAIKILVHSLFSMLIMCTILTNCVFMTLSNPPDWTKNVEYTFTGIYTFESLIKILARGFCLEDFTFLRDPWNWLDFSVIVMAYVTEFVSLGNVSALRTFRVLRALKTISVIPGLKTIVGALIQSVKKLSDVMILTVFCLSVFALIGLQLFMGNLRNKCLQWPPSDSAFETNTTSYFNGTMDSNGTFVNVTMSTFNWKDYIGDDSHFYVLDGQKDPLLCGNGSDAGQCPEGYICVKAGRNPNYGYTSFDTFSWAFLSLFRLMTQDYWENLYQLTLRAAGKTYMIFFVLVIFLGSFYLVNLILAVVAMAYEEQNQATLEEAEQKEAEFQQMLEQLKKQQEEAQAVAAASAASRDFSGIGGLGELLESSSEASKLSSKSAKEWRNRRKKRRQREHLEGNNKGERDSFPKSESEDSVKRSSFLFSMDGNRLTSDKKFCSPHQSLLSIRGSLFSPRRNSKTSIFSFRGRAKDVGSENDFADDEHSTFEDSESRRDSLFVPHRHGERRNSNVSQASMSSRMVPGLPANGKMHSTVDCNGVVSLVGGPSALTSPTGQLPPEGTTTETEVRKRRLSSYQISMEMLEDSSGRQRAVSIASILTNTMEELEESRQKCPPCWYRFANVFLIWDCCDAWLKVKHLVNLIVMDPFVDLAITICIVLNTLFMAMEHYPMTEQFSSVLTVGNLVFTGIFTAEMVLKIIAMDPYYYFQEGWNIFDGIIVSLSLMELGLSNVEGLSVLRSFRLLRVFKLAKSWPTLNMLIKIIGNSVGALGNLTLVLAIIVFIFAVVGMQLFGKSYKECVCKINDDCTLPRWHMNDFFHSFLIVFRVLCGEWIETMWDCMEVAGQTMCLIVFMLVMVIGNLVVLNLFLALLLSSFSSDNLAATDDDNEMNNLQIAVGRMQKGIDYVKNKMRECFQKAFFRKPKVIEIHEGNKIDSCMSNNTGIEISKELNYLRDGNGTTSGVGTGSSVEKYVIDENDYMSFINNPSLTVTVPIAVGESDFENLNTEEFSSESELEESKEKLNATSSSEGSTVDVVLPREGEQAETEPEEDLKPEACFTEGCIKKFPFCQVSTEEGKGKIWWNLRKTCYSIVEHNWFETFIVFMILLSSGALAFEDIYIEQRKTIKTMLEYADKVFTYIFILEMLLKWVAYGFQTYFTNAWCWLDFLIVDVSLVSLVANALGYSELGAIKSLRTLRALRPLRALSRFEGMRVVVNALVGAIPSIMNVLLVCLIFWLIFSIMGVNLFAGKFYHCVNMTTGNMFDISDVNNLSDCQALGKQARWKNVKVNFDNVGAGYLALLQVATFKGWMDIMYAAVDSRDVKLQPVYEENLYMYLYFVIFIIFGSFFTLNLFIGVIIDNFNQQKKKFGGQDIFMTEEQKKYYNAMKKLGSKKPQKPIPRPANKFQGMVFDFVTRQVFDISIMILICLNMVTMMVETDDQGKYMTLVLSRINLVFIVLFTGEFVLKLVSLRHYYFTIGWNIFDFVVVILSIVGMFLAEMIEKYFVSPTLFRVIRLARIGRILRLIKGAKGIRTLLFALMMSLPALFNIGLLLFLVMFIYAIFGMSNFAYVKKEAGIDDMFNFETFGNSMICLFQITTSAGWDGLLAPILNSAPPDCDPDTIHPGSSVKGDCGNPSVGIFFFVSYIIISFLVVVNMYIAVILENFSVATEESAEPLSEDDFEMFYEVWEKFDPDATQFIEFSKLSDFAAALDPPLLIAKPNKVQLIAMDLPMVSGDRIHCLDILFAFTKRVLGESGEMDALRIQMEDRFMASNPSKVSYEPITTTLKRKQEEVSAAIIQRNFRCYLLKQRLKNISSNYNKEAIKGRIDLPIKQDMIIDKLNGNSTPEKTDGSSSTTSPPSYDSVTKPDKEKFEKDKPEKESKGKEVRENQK
T2 sequence (Q99250 whole entry): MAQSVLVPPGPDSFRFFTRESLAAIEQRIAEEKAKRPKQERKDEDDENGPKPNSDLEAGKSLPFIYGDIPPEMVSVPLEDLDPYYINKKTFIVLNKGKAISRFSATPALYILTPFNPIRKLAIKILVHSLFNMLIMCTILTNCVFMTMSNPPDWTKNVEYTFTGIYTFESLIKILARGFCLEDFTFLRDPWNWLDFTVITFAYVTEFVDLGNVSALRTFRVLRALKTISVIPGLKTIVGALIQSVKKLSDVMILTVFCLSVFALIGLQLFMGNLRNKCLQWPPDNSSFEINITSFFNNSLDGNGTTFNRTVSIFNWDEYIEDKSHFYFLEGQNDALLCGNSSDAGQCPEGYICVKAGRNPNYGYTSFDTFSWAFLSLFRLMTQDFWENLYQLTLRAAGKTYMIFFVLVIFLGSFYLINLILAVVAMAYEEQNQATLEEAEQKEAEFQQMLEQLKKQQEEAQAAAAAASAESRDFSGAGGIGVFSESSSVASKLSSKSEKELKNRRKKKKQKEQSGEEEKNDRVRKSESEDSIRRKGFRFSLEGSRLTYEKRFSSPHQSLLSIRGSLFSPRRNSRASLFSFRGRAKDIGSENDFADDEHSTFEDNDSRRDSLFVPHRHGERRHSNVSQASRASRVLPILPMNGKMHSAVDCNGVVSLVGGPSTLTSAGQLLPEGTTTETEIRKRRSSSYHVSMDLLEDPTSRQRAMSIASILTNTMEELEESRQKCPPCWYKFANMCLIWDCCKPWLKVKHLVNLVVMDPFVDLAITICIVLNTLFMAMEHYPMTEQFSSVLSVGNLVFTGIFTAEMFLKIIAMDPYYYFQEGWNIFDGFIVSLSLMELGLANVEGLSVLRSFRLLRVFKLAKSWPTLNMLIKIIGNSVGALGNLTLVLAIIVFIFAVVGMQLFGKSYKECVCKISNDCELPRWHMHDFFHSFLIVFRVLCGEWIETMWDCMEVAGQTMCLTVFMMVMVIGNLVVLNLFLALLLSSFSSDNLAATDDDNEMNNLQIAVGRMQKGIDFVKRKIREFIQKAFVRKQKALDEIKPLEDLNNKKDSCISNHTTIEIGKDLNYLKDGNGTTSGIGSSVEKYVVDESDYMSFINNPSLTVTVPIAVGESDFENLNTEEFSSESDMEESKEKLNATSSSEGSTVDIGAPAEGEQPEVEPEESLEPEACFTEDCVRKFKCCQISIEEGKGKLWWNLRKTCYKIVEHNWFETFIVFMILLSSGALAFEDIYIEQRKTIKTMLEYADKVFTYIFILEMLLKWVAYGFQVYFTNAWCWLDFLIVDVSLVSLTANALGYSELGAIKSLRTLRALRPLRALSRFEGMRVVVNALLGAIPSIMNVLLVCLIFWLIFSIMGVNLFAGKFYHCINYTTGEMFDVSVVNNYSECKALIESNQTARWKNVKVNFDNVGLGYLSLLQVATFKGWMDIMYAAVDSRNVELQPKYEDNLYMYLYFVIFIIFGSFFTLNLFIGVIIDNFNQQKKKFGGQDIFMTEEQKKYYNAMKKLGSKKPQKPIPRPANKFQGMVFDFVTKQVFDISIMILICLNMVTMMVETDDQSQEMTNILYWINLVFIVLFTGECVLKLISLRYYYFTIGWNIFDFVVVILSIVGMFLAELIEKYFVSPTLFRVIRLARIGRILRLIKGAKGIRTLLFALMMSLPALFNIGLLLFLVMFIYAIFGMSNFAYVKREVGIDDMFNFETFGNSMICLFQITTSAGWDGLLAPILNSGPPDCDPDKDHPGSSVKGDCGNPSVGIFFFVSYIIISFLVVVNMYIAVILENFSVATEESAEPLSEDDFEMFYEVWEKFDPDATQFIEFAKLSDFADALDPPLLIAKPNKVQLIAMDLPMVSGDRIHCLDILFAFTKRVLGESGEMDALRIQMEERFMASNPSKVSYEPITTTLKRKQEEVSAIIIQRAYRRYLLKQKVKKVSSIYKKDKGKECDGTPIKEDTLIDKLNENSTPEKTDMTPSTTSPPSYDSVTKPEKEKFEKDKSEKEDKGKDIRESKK

Q: For `NC1=N[C@H](O)[C@H]2[C@H]3O[C@]4(O)O[C@@H]([C@@H](O)[C@@]2(N1)[C@@H]4O)[C@]3(O)CO` [TTX, Tetrodotoxin], which Hm1a-evoked calcium responses (TG or DRG neurons) is on record?
A: blocked

Q: For `CC(C)C[C@@H]1NC(=O)[C@H](Cc2c[nH]cn2)NC(=O)[C@H](CCCCN)NC(=O)[C@@H]2CSSC[C@H](NC(=O)[C@H](CCC(=O)O)NC(=O)[C@@H](N)CO)C(=O)N[C@@H](CCCNC(=N)N)C(=O)N[C@@H](Cc3ccc(O)cc3)C(=O)N[C@@H](CC(C)C)C(=O)N[C@@H](Cc3ccccc3)C(=O)NCC(=O)NCC(=O)N[C@H]3CSSC[C@H](NC(=O)CNC1=O)C(=O)N[C@@H](CCCNC(=N)N)C(=O)N[C@@H]([C@@H](C)O)C(=O)N[C@@H](CC(=O)O)C(=O)N[C@@H](CC(C)C)C(=O)N[C@@H](Cc1ccc(O)cc1)C(=O)N[C@@H](Cc1ccc(O)cc1)C(=O)N[C@H](C(=O)N[C@@H](C)C(=O)N[C@@H](Cc1c[nH]c4ccccc14)C(=O)N[C@@H](CC(=O)O)C(=O)NCC(=O)N[C@H](C(=O)N[C@@H](Cc1ccccc1)C(=O)O)[C@@H](C)O)CSSC[C@H](NC(=O)[C@H](CC(=O)O)NC(=O)[C@H](C)NC(=O)[C@H]([C@@H](C)O)NC(=O)[C@H]([C@@H](C)O)NC(=O)[C@H](CCCCN)NC3=O)C(=O)N2` [recombinant Hm1b], which “fast inactivation and sustained current at end of depolarising pulse, hNav1.1” value (hNav1.1 [1]) is on record?
A: delayed fast inactivation and induced a sustained current

Q: What about the EC50 (hNav1.1 [1]) of the same compound?
A: 18.5 nM

Q: What about the “selectivity for hNav1.1 over hNav1.2, hNav1.4, hNav1.5, hNav1.6 and hNav1.7” value (hNav1.1 [1]; sustained currents at 300 nM) of the same compound?
A: very high level of selectivity

Q: With “ECRYLFGGCKTTADCCKHLGCRTDLYYCAWDGTF-NH2 [Hm1b]” as the compound, how does the “voltage-dependence of fast inactivation of hNav1.1” value (hNav1.1 [2]) read?
A: does not appear to alter

Q: What about the “voltage-dependence of steady-state activation of hNav1.1” value (hNav1.1 [2]) of the same compound?
A: slight hyperpolarizing shift

Q: What about the “time constants of fast inactivation of hNav1.1” value (hNav1.1 [2]; [4]) of the same compound?
A: increases

Q: What about the hNav1.1 channel inactivation (hNav1.1 [2]; 1, 5 or 50 nM) of the same compound?
A: potently inhibits

Q: What about the “voltage-dependence of fast inactivation of hNav1.2” value (hNav1.2) of the same compound?
A: does not appear to alter

Q: What about the hNav1.2 channel inactivation (hNav1.2; 1 nM, 5 nM or 50 nM) of the same compound?
A: did not have a significant effect

Q: And the “time constants of fast inactivation of hNav1.2” value (hNav1.2; 50 nM, potentials more positive than −10 mV)?
A: increases

Q: What about the “voltage-dependence of fast inactivation of hNav1.3” value (hNav1.3) of the same compound?
A: does not appear to alter

Q: What about the hNav1.3 channel inactivation (hNav1.3; 5 nM and 50 nM) of the same compound?
A: slight inhibitory effect

Q: What about the “time constants of fast inactivation of hNav1.3” value (hNav1.3; [4]) of the same compound?
A: increased

Q: What about the “time constants of fast inactivation of hNav1.6” value (hNav1.6) of the same compound?
A: did not have an effect

Q: And the “voltage-dependence of fast inactivation of hNav1.6” value (hNav1.6)?
A: does not appear to alter

Q: What about the hNav1.6 channel inactivation (hNav1.6; 5 nM and 50 nM, slight inhibitory effect, compared with hNav1.3) of the same compound?
A: to a lesser extent

Q: For `CC[C@H](C)[C@@H]1NC(=O)[C@H](CCCNC(=N)N)NC(=O)[C@H](CC(=O)O)NC(=O)[C@H](CCSC)NC(=O)[C@H](CCCNC(=N)N)NC(=O)CNC(=O)CNC(=O)[C@H](Cc2ccccc2)NC(=O)[C@@H](NC(=O)[C@H](CO)NC(=O)[C@H](CO)NC(=O)[C@H](CCCNC(=N)N)NC(=O)[C@H](CCCNC(=N)N)NC(=O)[C@H](CC(C)C)NC(=O)[C@@H](N)CO)CSSC[C@@H](C(=O)N[C@@H](CC(N)=O)C(=O)N[C@@H](CO)C(=O)N[C@@H](Cc2ccccc2)C(=O)N[C@@H](CCCNC(=N)N)C(=O)N[C@@H](Cc2ccc(O)cc2)C(=O)O)NC(=O)CNC(=O)[C@H](CC(C)C)NC(=O)CNC(=O)[C@H](CO)NC(=O)[C@H](CCC(N)=O)NC(=O)[C@H](C)NC(=O)CNC1=O` [hANP], which “peptide remaining in human CSF” value [3] is on record?
A: no detectable

Q: What does the source list for `O=C(Nc1ccc(S(=O)(=O)Nc2nccs2)cc1)C(c1ccccc1)c1ccccc1` [ICA-121431]?
A: calcium responses induced by Hm1a (TG or DRG neurons; ICA-121431 500 nM): greatly diminish; responses to SGTx1 (TG or DRG neurons; in presence of ICA-121431): did not attenuate

Q: Which remaining at 72 h (in vitro) does the source give for `CSCC[C@@H]1NC(=O)[C@H](CC(C)C)NC(=O)[C@H](CCCNC(=N)N)NC(=O)[C@H](CO)NC(=O)[C@@H]2CSSC[C@@H]3NC(=O)[C@H](CO)NC(=O)CNC(=O)[C@H]([C@@H](C)O)NC(=O)[C@H](CSSC[C@H](N)C(=O)N[C@@H](CCCCN)C(=O)NCC(=O)N[C@@H](CCCCN)C(=O)NCC(=O)N[C@@H](C)C(=O)N[C@@H](CCCCN)C(=O)N2)NC(=O)[C@H](CSSC[C@@H](C(N)=O)NC(=O)[C@H](CCCCN)NC(=O)CNC(=O)[C@H](CO)NC(=O)[C@H](CCCNC(=N)N)NC3=O)NC(=O)[C@H](CC(=O)O)NC(=O)[C@H](Cc2ccc(O)cc2)NC1=O` [ω-conotoxin MVIIA] here?
A: ~10%

Q: For `CC(C)C[C@@H]1NC(=O)[C@H](Cc2c[nH]cn2)NC(=O)[C@H](CCCCN)NC(=O)[C@@H]2CSSC[C@H](NC(=O)[C@H](CCC(=O)O)NC(=O)[C@@H](N)CO)C(=O)N[C@@H](CCCNC(=N)N)C(=O)N[C@@H](Cc3ccc(O)cc3)C(=O)N[C@@H](CC(C)C)C(=O)N[C@@H](Cc3ccccc3)C(=O)NCC(=O)NCC(=O)N[C@H]3CSSC[C@H](NC(=O)CNC1=O)C(=O)N[C@@H](CCCNC(=N)N)C(=O)N[C@@H]([C@@H](C)O)C(=O)N[C@@H](CC(=O)O)C(=O)N[C@@H](CC(C)C)C(=O)N[C@@H](Cc1ccc(O)cc1)C(=O)N[C@@H](Cc1ccc(O)cc1)C(=O)N[C@H](C(=O)N[C@@H](C)C(=O)N[C@@H](Cc1c[nH]c4ccccc14)C(=O)N[C@@H](CC(=O)O)C(=O)NCC(=O)N[C@H](C(=O)N[C@@H](Cc1ccccc1)C(=O)O)[C@@H](C)O)CSSC[C@H](NC(=O)[C@H](CC(=O)O)NC(=O)[C@H](C)NC(=O)[C@H]([C@@H](C)O)NC(=O)[C@H]([C@@H](C)O)NC(=O)[C@H](CO)NC3=O)C(=O)N2` [recombinant Hm1b[K11S]] (H-SECRYLFGGCSTTADCCKHLGCRTDLYYCAWDGTF-OH; disulfide 3-17, 10-22, 16-29), which “fast inactivation and sustained current at end of depolarising pulse, hNav1.1” value (hNav1.1 [1]) is on record?
A: delayed fast inactivation

Q: And the EC50 (hNav1.1 [1])?
A: 39.5 nM
